Target: HdpA^S-LEHHHHHH (HdpA devoid of its N-terminal hydrophobic segment, His-tagged) (Helicobacter pylori strain 26695)
Test: crystal structure

stoichiometry N: 1
Substance: LhiA^S-SAHHHHHH (LhiA devoid of its predicted signal peptide and lipidated cysteine, His-tagged) (natural protein)
